Patent US20150328292A1, “CASPASE POLYPEPTIDES HAVING MODIFIED ACTIVITY AND USES THEREOF” (BELLICUM PHARMACEUTICALS, INC., priority 2014, published 2015)
Entries after “also recorded” stand apart in the source; their conditions may differ.

B1: ^316ATPF^319AVPI: caspase-9 with ATPF tetrapeptide replaced by SMAC/DIABLO AVPI (protein, UniProt P55211 1-416, looked up, variant T317V F319I)
chain: MDEADRRLLRRCRLRLVEELQVDQLWDALLSRELFRPHMIEDIQRAGSGSRRDQARQLIIDLETRGSQALPLFISCLEDTGQDMLASFLRTNRQAAKLSKPTLENLTPVVLRPEIRKPEVLRPETPRPVDIGSGGFGDVGALESLRGNADLAYILSMEPCGHCLIINNVNFCRESGLRTRTGSNIDCEKLRRRFSSLHFMVEVKGDLTAKKMVLALLELAQQDHGALDCCVVVILSHGCQASHLQFPGAVYGTDGCPVSVEKIVNIFNGTSCPSLGGKPKLFFIQACGGEQKDHGFEVASTSPEDESPGSNPEPDAVPIQEGLRTFDQLDAISSLPTPSDIFVSYSTFPGFVSWRDPKSGSWYVETLDDIFEQWAHSEDLQSLLLRVANAVSVKGIYKQMPGCFNFLRKKLFFKTS
B2: F319A: chimeric modified caspase-9 polypeptide variant (protein, UniProt P55211 1-416, looked up, variant F319A)
chain: MDEADRRLLRRCRLRLVEELQVDQLWDALLSRELFRPHMIEDIQRAGSGSRRDQARQLIIDLETRGSQALPLFISCLEDTGQDMLASFLRTNRQAAKLSKPTLENLTPVVLRPEIRKPEVLRPETPRPVDIGSGGFGDVGALESLRGNADLAYILSMEPCGHCLIINNVNFCRESGLRTRTGSNIDCEKLRRRFSSLHFMVEVKGDLTAKKMVLALLELAQQDHGALDCCVVVILSHGCQASHLQFPGAVYGTDGCPVSVEKIVNIFNGTSCPSLGGKPKLFFIQACGGEQKDHGFEVASTSPEDESPGSNPEPDATPAQEGLRTFDQLDAISSLPTPSDIFVSYSTFPGFVSWRDPKSGSWYVETLDDIFEQWAHSEDLQSLLLRVANAVSVKGIYKQMPGCFNFLRKKLFFKTS
modifications: chimeric, fused to FKBP12v36
notes: chimeric modified caspase-9 polypeptide variant
B3: P318A: chimeric modified caspase-9 polypeptide variant (protein, UniProt P55211 1-416, looked up, variant P318A)
chain: MDEADRRLLRRCRLRLVEELQVDQLWDALLSRELFRPHMIEDIQRAGSGSRRDQARQLIIDLETRGSQALPLFISCLEDTGQDMLASFLRTNRQAAKLSKPTLENLTPVVLRPEIRKPEVLRPETPRPVDIGSGGFGDVGALESLRGNADLAYILSMEPCGHCLIINNVNFCRESGLRTRTGSNIDCEKLRRRFSSLHFMVEVKGDLTAKKMVLALLELAQQDHGALDCCVVVILSHGCQASHLQFPGAVYGTDGCPVSVEKIVNIFNGTSCPSLGGKPKLFFIQACGGEQKDHGFEVASTSPEDESPGSNPEPDATAFQEGLRTFDQLDAISSLPTPSDIFVSYSTFPGFVSWRDPKSGSWYVETLDDIFEQWAHSEDLQSLLLRVANAVSVKGIYKQMPGCFNFLRKKLFFKTS
modifications: chimeric, fused to FKBP12v36
notes: as for B2
B4: T317C: chimeric modified caspase-9 polypeptide variant (protein)
chain: VDGFGDVGALESLRGNADLAYILSMEPCGHCLIINNVNFCRESGLRTRTGSNIDCEKLRRRFSSLHFMVEVKGDLTAKKMVLALLELARQDHGALDCCVVVILSHGCQASHLQFPGAVYGTDGCPVSVEKIVNIFNGTSCPSLGGKPKLFFIQACGGEQKDHGFEVASTSPEDESPGSNPEPDACPFQEGLRTFDQLDAISSLPTPSDIFVSYSTFPGFVSWRDPKSGSWYVETLDDIFEQWAHSEDLQSLLLRVANAVSVKGIYKQMPGCFNFLRKKLFFKTSASRA
B5: T317S: chimeric modified caspase-9 polypeptide variant (protein)
chain: VDGFGDVGALESLRGNADLAYILSMEPCGHCLIINNVNFCRESGLRTRTGSNIDCEKLRRRFSSLHFMVEVKGDLTAKKMVLALLELARQDHGALDCCVVVILSHGCQASHLQFPGAVYGTDGCPVSVEKIVNIFNGTSCPSLGGKPKLFFIQACGGEQKDHGFEVASTSPEDESPGSNPEPDASPFQEGLRTFDQLDAISSLPTPSDIFVSYSTFPGFVSWRDPKSGSWYVETLDDIFEQWAHSEDLQSLLLRVANAVSVKGIYKQMPGCFNFLRKKLFFKTSASRA

System: HEK293T/16 cells
Experiment: SEAP reporter-based surrogate killing assay (basal activity and AP1903 IC50)
Format: cell-based, human
Conditions: AP1903-independent SEAP activity, vs wild type
Protocol: FIG. 45 provides a schematic of an analysis of SEAP assays. […] of the mixture was seeded onto each well of a 96-well plate. […] For the assay, 4-methylumbelliferyl phosphate substrate was hydrolyzed by SEAP to 4-methylumbelliferon, a metabolite that can be excited with 364 nm and detected with an emission filter of 448 nm. Since SEAP is used as a marker for cell viability, reduced SEAP reading corresponds with increased icaspase-9 activities.
Early passage HEK293T/16 cells (ATCC, Manassas, Va.) were maintained in IMDM, GlutaMAX™ (Life Technologies, Carlsbad, Calif.) supplemented with 10% FBS, 100 U/mL penicillin, and 100 […] until transfection in a humidified, 37° C., 5% CO2/95% air atmosphere. Cells in logarithmic-phase growth were transiently transfected with 800 ng to 2 μg of expression plasmid encoding iCasp9 mutants and 500 ng of an expression plasmid encoding SRα promoter driven SEAP per million cells in 15-mL conical tubes. […] GeneJammer® Transfection Reagent at a ratio of 3 μl per ug of plasmid DNA was used to transiently transfect HEK293T/16 cells in the absence of antibiotics. 100 μl or 2 mL of the transfection mixture was added to each well in 96-well or 6-well plate, respectively.
Briefly, after 65° C. heat denaturation for 45 minutes to reduce background caused by endogenous (and serum-derived) alkaline phosphatases that are sensitive to heat, 5 μl of supernatants was added to 95 μl of PBS and added to 100 μl of substrate buffer, containing 1 μl of 100 mM 4-methylumbelliferyl phosphate (4-MUP; Sigma, St. Louis, Mo.) re-suspended in 2 M diethanolamine. Hydrolysis of 4-MUP by SEAP produces a fluorescent […] with excitation/emission (355/460 nm), which can be easily measured. Assays were performed in black opaque 96-well plates to minimize fluorescence leakage between wells (FIG. 45).

Row | Molecule | basal activity / basal signaling (in words)
1 | B1 | no effect
2 | B2 | no effect
3 | B3 | no effect
4 | B4 | no effect
5 | B5 | lower basal activity; also recorded: reduce basal activity; also recorded: decrease in basal activity
